Assay results: FireProtDB (doi:10.1016/j.jmb.2009.04.068)
Where “and” joins values, the source holds several entries; their conditions need not be identical. Identical values can stand only once.

B1: Neurotensin receptor type 1, P20789 (parent)
chain: MHLNSSVPQGTPGEPDAQPFSGPQSEMEATFLALSLSNGSGNTSESDTAGPNSDLDVNTDIYSKVLVTAIYLALFVVGTVGNSVTAFTLARKKSLQSLQSTVHYHLGSLALSDLLILLLAMPVELYNFIWVHHPWAFGDAGCRGYYFLRDACTYATALNVASLSVERYLAICHPFKAKTLMSRSRTKKFISAIWLASALLAIPMLFTMGLQNRSGDGTHPGGLVCTPIVDTATVKVVIQVNTFMSFLFPMLVISILNTVIANKLTVMVHQAAEQGRVCTVGTHNGLEHSTFNMTIEPGRVQALRHGVLVLRAVVIAFVVCWLPYHVRRLMFCYISDEQWTTFLFDFYHYFYMLTNALFYVSSAINPILYNLVSANFRQVFLSTLACLCPGWRHRRKKRPTFSRKPNSMSSNHAFSTSATRETLY

Variants of: B1
Settings: Rattus norvegicus; pH 7.4; Heat treatment; Activity; Tris-HCl 50 mM; structure 4BUO; whole UniProt chain shown

For A86L I260A F342A F358A, which Tm is on record?
The Tm was 50 °C.

With A86L I260A F342A as the variant, how does the Tm read?
Its Tm is 47 °C.

With F358A A86L H103A F342A as the variant, how does the Tm read?
Its Tm is 50 °C.

With F358A A86L H103A as the variant, how does the Tm read?
Its Tm is 48 °C.

For F358A H103A I260A F342A, which Tm is on record?
Its Tm is 50 °C.

With F358A as the variant, how does the “change of melting temperature, mutant - wild type (higher = more stable)” value (“change of melting temperature, mutant” for short) read?
The value was 7 °C.

Which Tm does the source give for F358A A86L I260A here?
The Tm was 49 °C.

For H103A, which Tm is on record?
The Tm was 34 °C and 36 °C.

Which Tm does the source give for A86L here?
The Tm was 37 °C and 39 °C.

Which Tm does the source give for F358A A86L H103A I260A here?
The Tm was 49 °C.

Which Tm does the source give for F358A A86L H103A I260A F342A here?
The Tm was 50 °C.

For A86L F358A, which Tm is on record?
The Tm was 48 °C.

Same assay, conditions: Rattus norvegicus; pH 7.4; Thermal; Activity; Tris-HCl 50 mM; structure 4BUO; whole UniProt chain shown

For F358A, which “change of melting temperature, mutant” value is on record?
The value was 3 °C and 8 °C.

Which Tm does the source give for A86L here?
Its Tm is 33 °C.

What about the “change of melting temperature, mutant” value of the same variant?
The value was 8 °C.

With A86L F358A as the variant, how does the “change of melting temperature, mutant” value read?
The value was 11 °C and 10 °C.
